# In patent US20260158151A1:
# Molecular target: RAS (endogenous RAS of human pancreatic PANC-1 cells and PANC-1 xenograft tumours, detected with a pan-RAS antibody)
# Test: cell-based or functional assay
substance,measurement,value
RRSP protein expressed in cells from rrsp mRNA delivered by PPDP2 nanoparticles (from UniProt A0A2S3R7M0 3596-4089) (enzyme),"cell proliferation measured by crystal violet staining, PANC-1 cells, 1.25 µg PPDP2-rrsp",> 60 % reduction
same,"total levels of intact RAS, western blot with pan-RAS antibody, PANC-1 cells treated with PPDP2-rrsp",40 % reduction
